The nature of this series: yeast display, Sf9 membrane polyspecificity reagent, FACS + sequencing; frameworks hold sequencing errors. The essentials:
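In a synthetic yeast display library (Saccharomyces cerevisiae BJ5465), nanobody expression was induced with galactose for 36–48 hours. FACS gates were set low and high (top ~1%) using anti-HA fluorescence for expression and streptavidin fluorescence for binding of the Sf9 membrane reagent. Each polyreactivity label is drawn from the gate of origin.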
With “HVQLVESGGGLVQAGGSLRLSCAASGFIFWRYAMGWYRQAPGKERELVAAISVSGTRTYYADSVKGRFTISRDNAKNTVYLQMNSLKPEDTAVYYCAADRYYGEDYWGQGTQVTVSS”, the “polyreactivity (PSR sort gate)” value is “high polyreactivity”.
In the case of “QDQLVESGGGLVQAGGSLRLSCAASGSTFRHNAMGWYRQAPGKERELVATIRTSGGTTYYADSVKGRFTISRDNAKNTVYLHMNSLKPEDTAVYYCAAVSYLFLYQGYPIAYPMYYWGQGTQVTLSS”, the “polyreactivity (PSR sort gate)” value is reported as “low polyreactivity”.
As to “QVQLVESGGGLVQAGGSLRLSCAASGSTFIGNAMGWYRQAPGKERELVAAITRSGGSTFYADSVKGRFTISRDNAKNTVYLQMNSLKPEDTAVYYCAAKGNPYRVPGSSYPKVNYWGQGTQVTVSS”, the “polyreactivity (PSR sort gate)” value is “high polyreactivity”.
With “QVQLVESGGGLDQAGGSLRLSCAASGTTFRNNAMGWYRQAPGKERELVAVITGDGGSTYYADSVKGRFTISRDNAKNTVYLEMNSLKPEDTAVYYCNARSIRYSRFRQRFGYWGQGTQVTVSS” the entry was “low polyreactivity”; with “QVQHVESGGGLVQAGGSLRLSCAASGRNFTYYAMGWYRQAPGKERELVAAISGGGITNYADSVKGRFTISRDNAKNTVYLQMNSLKPEDTAVYYCAADQRYRRAFRSRYGSWGQGTQVTVSS”, “low polyreactivity”; with “QVQLVESGGGLVQAGGSLRLSCAASGSTFASNVMGWYRQAPGKERELVAAITRGDRTHYAHSVKGRFTISRDNAKNTVYLQMNSLKPEDPAVYYCAKVTTLGRSRDYWGQGTQVTVSS”, “low polyreactivity”.
With “QVQLVESGGGLVQAGGSLRLSCAASGFIFYNYAMGLYRQAPGKERELVAAISASGGRTYYADSVKGRFTISRDNAKNTVYLQMNRLKPEDTAVYYCNARVNYKGYDYWGQGTQVTVSS” the entry was “high polyreactivity”.
With “QVQLVESGGGLVQAGGSLRLSCAASGRIFGTYAMGWYRQAPGKERELVAAITQSGGRTYYADSVKGRFTISRDNAKNTVYLQMNSLKPEDTAVYYCAADSGKRRYGYYYWGQGTQVTVSS”, the “polyreactivity (PSR sort gate)” value is “high polyreactivity”.
In the case of “QVQLVESGRGLVQAGGSLRLSCAASGRTFRFNAMGWYRQAPGKEREFVAAITSGGGTYYADSVKGRFTISRDNAKNTVYLQMNSLKPEDTAVYYCAAPRQYYLMDYGGQGTQVTVSS” it was “low polyreactivity”.
For the sequence “QVQLVESGGGLVQAGGSLRLSCAASGYTFWFYAMGWYRQAPGKEREFVATISRSGGSTYYADSVKGRFTISRDNAKNTVYLQMNSLKPEDTAVYYCNARGPRSHRYDYWGQGTQVTVSS”, the “polyreactivity (PSR sort gate)” value was “high polyreactivity”.
In the case of “QVQLVETAGGLVQAGGSLRLSCAASGSTFYTNAMGWYRQAPGKERELVAAISGSGGSTYYADSVKGRFTISRDNAKNTVYLQMISLKPEDTAVYNCAARSRYYDTRFDYWGQGTQVTVSS” it was “low polyreactivity”; in that of “QVQLVESGGGLVQAGGSLRLSCAASGRIFRWYAMGWYRQAPGKERELVARITSGSSTYYADSVKGRFTISRDNAKNTVYLQMHSLKPEDTAVYYCATRTLQPGYTYPRYYWGQGTQVTVSS”, “high polyreactivity”; in that of “QVQLVESGGGLVQAGGSLRLSCAASGTITSYAMGWYRQAPGKERELVASIRYRGGSTYYADSVKGRFTISRDNAKNTVYLQMNSLKPEDTAVYYCAADNFAPEFYYWGQGTQVTVSS”, “low polyreactivity”.
In the case of “QVQLVESGGGLVQAGGSLRLSWAASGSIFRYNAMGWYRQAPGKERELVAAISSGGGTTYYADSVKGRFTISRDNAKNSVYLQMNSLKPEVTAVYYCNARSYYQRTTYPFRVDYWGQGTQVTVSS” it was “high polyreactivity”; in that of “QVQLVESGGGLVQAGGSLRLSCAATGFIVAWYAMGWYRQAPGKERELVAAISSSVGSTYYADSVKGRFTISRDIAKNTVYLQMNSLKPEDTAVYYCNADEYWASGYDPYDYWGQGTQVTVSS”, “low polyreactivity”; in that of “QVQLVESGGGLVQAGGSLRLSCAASGFTFKWYTRGWYRQAPGKERELVAAISTRGGSTYYADSVKGRFTISRDNAKNTVYLQMNSLKPEDTAVYYCAAVYRRGSGYDYWGQGTQVTVSS”, “high polyreactivity”.
Consider “QVQLVDSGGGLVQAGGTLRLSCGASGLIFYLYAMGWFRQAPGKERELVAAITYSGGSTRYADSVKGRFTISRDNAKNTVYFQKNSLKPEDTAVYYCNAAGTAPTELDYWGQGSQVTVSS”, for which the “polyreactivity (PSR sort gate)” value is recorded as “low polyreactivity”.
Consider “QVQLVESGGGLVQAGGSLRLSCAASGRIFLPNAMGWYRQAPGKEREFVASISWSGGSTYYADSVKGRFTISRDNAKNTVYLQMNSLNPEDTAVYYCAAQSPAYYSKSYWGQGTQVTVSS”, for which the “polyreactivity (PSR sort gate)” value is on record as “low polyreactivity”.
In the case of “KVQLVESGGGLVQAGGTLRLSCAASGSTFTPYAMVWYRQAPGKERELVAAIWIGGNTYYADSVKGRFTISRDNAKNTVYLQMNSLKPEDTAVYYCATENVDPDHYYDWGYDYWGQGTQVTVSS” it was “low polyreactivity”; in that of “HVQHVESGGGLVQAGGSLRLSCAASGFTFFYYTMGWYRQAPGKERELVAAISKGGGSTFYADSVKGRFTISRDNAKNTVYLQMNSLKPEDTAVYYCAASYVRGYDYWGQGTQVTVSS”, “high polyreactivity”; in that of “QVQLVESGGGLVQAGGSLRLSCAASGRTFGPYALGWYRQAPGKERELVATSSSNGASTYYADSVKGRFTISRDNAKNTVYLQMNSLKPEDTAVYYCAAEFHFWGYLYDYWGQGTQVTVSS”, “low polyreactivity”.
“QVQLVESGGGLVQAGGSLRLSCAASGSIFTYYDMGWYRQAPGKEREWVAGISRRGSTYYADSVKGRFTISRDNAKNTVYLQMNSLKPEDTAVYYCAADPWVGTLYPRVGYWGQGTQVTVSS”: the “polyreactivity (PSR sort gate)” value is on record as “low polyreactivity”.
With “QVQLVESWGGLVQAGCSLRLSCAPSGSIFRTNAMGWYREAPGKQRELLAAITGSGGSTNYADSVKGRFTISRDNAKNTVYLQMNSLKPEDTADYYCAAEFGSLLSPYNYYYWGQGTQVTVSS” the entry was “low polyreactivity”; with “QVQLVESGGGLVQAGGSLRLSCAASGFTFYRNAMGWYRQAPGKERELVAAITWSGTSTYYADSVKGRFTISRDNAKNTVYLQMNSLKPEDTAVYYCNTVGYRGRSNSRFYYWGQGTQVTVSS”, “high polyreactivity”.
Consider “QFQLVESGGGLVQAGGSLRLSCAASGSSFTVYAMGWYRQAPGKETELVAAISYVGGSTYYAASVKGRFTISRDNAKNTVYLQMNSLKPEDTAVYYCAADPYYSYGYYHAHGRDVGYWGQGTQVTVSS”, for which the “polyreactivity (PSR sort gate)” value is given as “low polyreactivity”.
On to “QVQLVESGGGLVQAGGSLRLSCAASGRIFSRNTMGWYRQAPGKERELVATISWSGSRTYYADSVKGRFTISRDNAKNTVYLQMNSLKPEDTAVYYCAARLWPSYLSYGKTGDYWGQGTQVTVSS”, for which the “polyreactivity (PSR sort gate)” value is on record as “high polyreactivity”.
With “QVQLVESGGGLVQAGGSLRLSCAASGFTFGFNTMGWYRQAPGKERELVATITSGGSTYYADSVKGRFTISRDNAKNTVYLQMNILKPEDTAVYYCAATAGSPWAKSRYGYWGQGTQVTVSS” the entry was “low polyreactivity”; with “QVQHVESGGGLVQAGGSLRLSCAASGRIFTYYTMGWYRPAPGKEREFVAAISWSGTSTYYADSVKGRFRISRDNAKNTVYLQMKSLKPEDTAVYSCAARNWYSRYDYWGQGTQVTVSS”, “high polyreactivity”.
In the case of “QVQLVESAGGLVQAGGSLRLSCAASGRISAYAMGWYRQAPGKERELVAAISSRGGRTYYADSVKGRFTISRDNAKNTVYLQMNSLKPDDTAVYYCNALRTWEFDHWGQGTQVTVSS” it was “high polyreactivity”.
Take “QVQLVESRGGLVQAGGSLRVSCAASGRTFGVNAMGWYRQAPGKERELVAAISTSGGSTYYADSVKGRFTISRDNAKNTVYLQMNSLIPEDTAVYYCNTGRGRYVHGRDYDYWGQGTQVTVSS”: the “polyreactivity (PSR sort gate)” value is listed as “low polyreactivity”.

Source of the values: the nanobody polyreactivity screen of Harvey et al. (2022).
